Measured values published in patent US20240270846A1 (published 2024).
Positions count from the first letter of the chain named. Names may count otherwise. Each block holds one binder with its values, some of them ahead of it.

Target: T1, CD3 epsilon homodimer protein (UniProt P07766 23-126)
T1 construct: construct not described; homodimer as printed; also called CD3 (CD3 epsilon)
Test: SPR Biacore T200, CD3 epsilon homodimer immobilized; vs unaltered GLS3000;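 note: antibody variants flowed as analyte over CD3 epsilon homodimer amine-coupled to a CM4 chip, at 25 °C in HBS-EP+ running buffer, fitted with Biacore T200 Evaluation Software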

T1 sequence (P07766 23-126): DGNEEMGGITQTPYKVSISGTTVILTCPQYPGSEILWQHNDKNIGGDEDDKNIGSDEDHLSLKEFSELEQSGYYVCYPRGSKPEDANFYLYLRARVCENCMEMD

KD ratio to GLS3000 (Affinity up): 1.35
B7: GLS3000 S27eR (Kabat) L chain altered form, one-arm antibody with CE115HA000 (antibody, human IgG1, kappa, L234A L235A, N297A, name in Kabat numbering)
heavy: QVQLVESGGGVVQPGRSLRLSCAASGFTFSNAWMHWVRQAPGKGLEWVAQIKAKSNNYATYYAESVKGRFTISRDDSKNSLYLQMNSLKTEDTAVYYCRYVHYGAYYGVDAWGQGTTVTVSSASTKGPSVFPLAPSSKSTSGGTAALGCLVKDYFPEPVTVSWNSGALTSGVHTFPAVLQSSGLYSLSSVVTVPSSSLGTQTYICNVNHKPSNTKVDKKVEPKSCDKTHTCPPCPAPEAAGGPSVFLFPPKPKDTLMISRTPEVTCVVVDVSHEDPEVKFNWYVDGVEVHNAKTKPREEQYASTYRVVSVLTVLHQDWLNGKEYKCKVSNKALPAPIEKTISKAKGQPREPQVYTLPPSRCELTKNQVSLSCAVKGFYPSDIAVEWESNGQPENNYKTTPPVLDSDGSFFLVSKLTVDKSRWQQGNVFSCSVMHEALHNHYTQKSLSLSPDYKDDDDK
chain: EPKSSDKTHTCPPCPAPELLGGPSVFLFPPKPKDTLMISRTPEVTCVVVDVSHEDPEVKFNWYVDGVEVHNAKTKPREEQYNSTYRVVSVLTVLHQDWLNGKEYKCKVSNKALPAPIEKTISKAKGQPREPQVCTLPPSRDELTKNQVSLWCLVKGFYPSDIAVEWESNGQPENNYKTTPPVLDSDGSFFLYSKLTVDKSRWQQGNVFSCSVMHEALHNRYTQKSLSLSP
light: DIVMTQSPLSLPVTPGEPASISCRSSQSLVHRNRNTYLHWYQQKPGQAPRLLIYKVSNRFSGVPDRFSGSGSGTDFTLKISRVEAEDVGVYYCGQGTQVPYTFGQGTKLEIKRTVAAPSVFIFPPSDEQLKSGTASVVCLLNNFYPREAKVQWKVDNALQSGNSQESVTEQDSKDSTYSLSSTLTLSKADYEKHKVYACEVTHQGLSSPVTKSFNRGEC
notes: one-arm antibody

KD ratio to GLS3000 (Affinity up): 1.32
B11: GLS3000 S27eW (Kabat) L chain altered form, one-arm antibody with CE115HA000 (antibody, human IgG1, kappa, L234A L235A, N297A, name in Kabat numbering)
heavy: B7 heavy
chain: B7 chain
light: B7 light with R32W
notes: one-arm antibody

KD ratio to GLS3000 (Affinity up): 3.71
B12: GLS3000 V27cP (Kabat) L chain altered form, one-arm antibody with CE115HA000 (antibody, human IgG1, kappa, L234A L235A, N297A, name in Kabat numbering)
heavy: B7 heavy
chain: B7 chain
light: B7 light with V30P, R32S
notes: one-arm antibody

KD ratio to GLS3000 (Affinity up): 1.18
B16: GLS3000 S56A (Kabat) L chain altered form, one-arm antibody with CE115HA000 (antibody, human IgG1, kappa, L234A L235A, N297A, name in Kabat numbering)
heavy: B7 heavy
chain: B7 chain
light: B7 light with R32S, S61A
notes: one-arm antibody

KD ratio to GLS3000 (Affinity up): 1.03
B18: GLS3000 V27cI (Kabat) L chain altered form, one-arm antibody with CE115HA000 (antibody, human IgG1, kappa, L234A L235A, N297A, name in Kabat numbering)
heavy: B7 heavy
chain: B7 chain
light: B7 light with V30I, R32S
notes: one-arm antibody

KD ratio to GLS3000 (Affinity up): 1.1
B21: GLS3000 V27cE (Kabat) L chain altered form, one-arm antibody with CE115HA000 (antibody, human IgG1, kappa, L234A L235A, N297A, name in Kabat numbering)
heavy: B7 heavy
chain: B7 chain
light: B7 light with V30E, R32S
notes: one-arm antibody

KD ratio to GLS3000 (Affinity up): 1.1
B23: GLS3000 S27eY (Kabat) L chain altered form, one-arm antibody with CE115HA000 (antibody, human IgG1, kappa, L234A L235A, N297A, name in Kabat numbering)
heavy: B7 heavy
chain: B7 chain
light: B7 light with R32Y
notes: one-arm antibody

KD ratio to GLS3000 (Affinity up): 3.21
B25: GLS3000 V27cD (Kabat) L chain altered form, one-arm antibody with CE115HA000 (antibody, human IgG1, kappa, L234A L235A, N297A, name in Kabat numbering)
heavy: B7 heavy
chain: B7 chain
light: B7 light with V30D, R32S
notes: one-arm antibody

KD ratio to GLS3000 (Affinity up): 0.9
B26: GLS3000 S52A (Kabat) L chain altered form, one-arm antibody with CE115HA000 (antibody, human IgG1, kappa, L234A L235A, N297A, name in Kabat numbering)
heavy: B7 heavy
chain: B7 chain
light: B7 light with R32S, S57A
notes: one-arm antibody

KD ratio to GLS3000 (Affinity up): 0.81
B27: GLS3000 V27cL (Kabat) L chain altered form, one-arm antibody with CE115HA000 (antibody, human IgG1, kappa, L234A L235A, N297A, name in Kabat numbering)
heavy: B7 heavy
chain: B7 chain
light: B7 light with V30L, R32S
notes: one-arm antibody

KD ratio to GLS3000 (Affinity up): 0.95
B31: GLS3000 S27eV (Kabat) L chain altered form, one-arm antibody with CE115HA000 (antibody, human IgG1, kappa, L234A L235A, N297A, name in Kabat numbering)
heavy: B7 heavy
chain: B7 chain
light: B7 light with R32V
notes: one-arm antibody

KD ratio to GLS3000 (Affinity up): 0.98
B32: GLS3000 S27eT (Kabat) L chain altered form, one-arm antibody with CE115HA000 (antibody, human IgG1, kappa, L234A L235A, N297A, name in Kabat numbering)
heavy: B7 heavy
chain: B7 chain
light: B7 light with R32T
notes: one-arm antibody

The remaining lines, values behind:

B1: GLS3000 S26E (Kabat) L chain altered form, one-arm antibody with CE115HA000 (antibody, human IgG1, kappa, L234A L235A, N297A, name in Kabat numbering)
heavy: B7 heavy
chain: B7 chain
light: B7 light with S26E, R32S
notes: one-arm antibody
KD ratio to GLS3000 (Affinity up): 0.9

B2: GLS3000 S27eI (Kabat) L chain altered form, one-arm antibody with CE115HA000 (antibody, human IgG1, kappa, L234A L235A, N297A, name in Kabat numbering)
heavy: B7 heavy
chain: B7 chain
light: B7 light with R32I
notes: one-arm antibody
KD ratio to GLS3000 (Affinity up): 1.05

B3: GLS3000 S27aE (Kabat) L chain altered form, one-arm antibody with CE115HA000 (antibody, human IgG1, kappa, L234A L235A, N297A, name in Kabat numbering)
heavy: B7 heavy
chain: B7 chain
light: B7 light with S28E, R32S
notes: one-arm antibody
KD ratio to GLS3000 (Affinity up): 0.94

B4: GLS3000 S27aY (Kabat) L chain altered form, one-arm antibody with CE115HA000 (antibody, human IgG1, kappa, L234A L235A, N297A, name in Kabat numbering)
heavy: B7 heavy
chain: B7 chain
light: B7 light with S28Y, R32S
notes: one-arm antibody
KD ratio to GLS3000 (Affinity up): 0.93

B5: GLS3000 S27eF (Kabat) L chain altered form, one-arm antibody with CE115HA000 (antibody, human IgG1, kappa, L234A L235A, N297A, name in Kabat numbering)
heavy: B7 heavy
chain: B7 chain
light: B7 light with R32F
notes: one-arm antibody
KD ratio to GLS3000 (Affinity up): 1.16

B6: GLS3000 S27eD (Kabat) L chain altered form, one-arm antibody with CE115HA000 (antibody, human IgG1, kappa, L234A L235A, N297A, name in Kabat numbering)
heavy: B7 heavy
chain: B7 chain
light: B7 light with R32D
notes: one-arm antibody
KD ratio to GLS3000 (Affinity up): 1.23

B8: GLS3000 S27eH (Kabat) L chain altered form, one-arm antibody with CE115HA000 (antibody, human IgG1, kappa, L234A L235A, N297A, name in Kabat numbering)
heavy: B7 heavy
chain: B7 chain
light: B7 light with R32H
notes: one-arm antibody
KD ratio to GLS3000 (Affinity up): 1.09

B9: GLS3000 S27eN (Kabat) L chain altered form, one-arm antibody with CE115HA000 (antibody, human IgG1, kappa, L234A L235A, N297A, name in Kabat numbering)
heavy: B7 heavy
chain: B7 chain
light: B7 light with R32N
notes: one-arm antibody
KD ratio to GLS3000 (Affinity up): 1.01

B10: GLS3000 S27eG (Kabat) L chain altered form, one-arm antibody with CE115HA000 (antibody, human IgG1, kappa, L234A L235A, N297A, name in Kabat numbering)
heavy: B7 heavy
chain: B7 chain
light: B7 light with R32G
notes: one-arm antibody
KD ratio to GLS3000 (Affinity up): 1.03

B13: GLS3000 S27aD (Kabat) L chain altered form, one-arm antibody with CE115HA000 (antibody, human IgG1, kappa, L234A L235A, N297A, name in Kabat numbering)
heavy: B7 heavy
chain: B7 chain
light: B7 light with S28D, R32S
notes: one-arm antibody
KD ratio to GLS3000 (Affinity up): 0.94

B14: GLS3000 S27eQ (Kabat) L chain altered form, one-arm antibody with CE115HA000 (antibody, human IgG1, kappa, L234A L235A, N297A, name in Kabat numbering)
heavy: B7 heavy
chain: B7 chain
light: B7 light with R32Q
notes: one-arm antibody
KD ratio to GLS3000 (Affinity up): 1.08

B15: GLS3000 S27aN (Kabat) L chain altered form, one-arm antibody with CE115HA000 (antibody, human IgG1, kappa, L234A L235A, N297A, name in Kabat numbering)
heavy: B7 heavy
chain: B7 chain
light: B7 light with S28N, R32S
notes: one-arm antibody
KD ratio to GLS3000 (Affinity up): 0.98

B17: GLS3000 S27aG (Kabat) L chain altered form, one-arm antibody with CE115HA000 (antibody, human IgG1, kappa, L234A L235A, N297A, name in Kabat numbering)
heavy: B7 heavy
chain: B7 chain
light: B7 light with S28G, R32S
notes: one-arm antibody
KD ratio to GLS3000 (Affinity up): 0.8

B19: GLS3000 S27eA (Kabat) L chain altered form, one-arm antibody with CE115HA000 (antibody, human IgG1, kappa, L234A L235A, N297A, name in Kabat numbering)
heavy: B7 heavy
chain: B7 chain
light: B7 light with R32A
notes: one-arm antibody
KD ratio to GLS3000 (Affinity up): 1.01

B20: GLS3000 S27eL (Kabat) L chain altered form, one-arm antibody with CE115HA000 (antibody, human IgG1, kappa, L234A L235A, N297A, name in Kabat numbering)
heavy: B7 heavy
chain: B7 chain
light: B7 light with R32L
notes: one-arm antibody
KD ratio to GLS3000 (Affinity up): 1.06

B22: GLS3000 S27aP (Kabat) L chain altered form, one-arm antibody with CE115HA000 (antibody, human IgG1, kappa, L234A L235A, N297A, name in Kabat numbering)
heavy: B7 heavy
chain: B7 chain
light: B7 light with S28P, R32S
notes: one-arm antibody
KD ratio to GLS3000 (Affinity up): 1.01

B24: GLS3000 S27eP (Kabat) L chain altered form, one-arm antibody with CE115HA000 (antibody, human IgG1, kappa, L234A L235A, N297A, name in Kabat numbering)
heavy: B7 heavy
chain: B7 chain
light: B7 light with R32P
notes: one-arm antibody
KD ratio to GLS3000 (Affinity up): 1.06

B28: GLS3000 S27eM (Kabat) L chain altered form, one-arm antibody with CE115HA000 (antibody, human IgG1, kappa, L234A L235A, N297A, name in Kabat numbering)
heavy: B7 heavy
chain: B7 chain
light: B7 light with R32M
notes: one-arm antibody
KD ratio to GLS3000 (Affinity up): 1.11

B29: GLS3000 S27aI (Kabat) L chain altered form, one-arm antibody with CE115HA000 (antibody, human IgG1, kappa, L234A L235A, N297A, name in Kabat numbering)
heavy: B7 heavy
chain: B7 chain
light: B7 light with S28I, R32S
notes: one-arm antibody
KD ratio to GLS3000 (Affinity up): 0.87

B30: GLS3000 S26P (Kabat) L chain altered form, one-arm antibody with CE115HA000 (antibody, human IgG1, kappa, L234A L235A, N297A, name in Kabat numbering)
heavy: B7 heavy
chain: B7 chain
light: B7 light with S26P, R32S
notes: one-arm antibody
KD ratio to GLS3000 (Affinity up): 0.67

B33: GLS3000 S27eK (Kabat) L chain altered form, one-arm antibody with CE115HA000 (antibody, human IgG1, kappa, L234A L235A, N297A, name in Kabat numbering)
heavy: B7 heavy
chain: B7 chain
light: B7 light with R32K
notes: one-arm antibody
KD ratio to GLS3000 (Affinity up): 1.32

B34: GLS3000 S27eE (Kabat) L chain altered form, one-arm antibody with CE115HA000 (antibody, human IgG1, kappa, L234A L235A, N297A, name in Kabat numbering)
heavy: B7 heavy
chain: B7 chain
light: B7 light with R32E
notes: one-arm antibody
KD ratio to GLS3000 (Affinity up): 1.04
